Assay results: patent US20240075152A1

Key:
[1] = target: GCN4-p2L variant (trimeric variant of GCN4 peptide with N-terminal NTA and C-terminal His2), assembled into hexagonal 3D crystals with Zn2+; test: derived from the EDTA dissolution data and the hourglass volume (about 50%)
[2] = target: GCN4-p2L variant (trimeric variant of GCN4 peptide with N-terminal NTA and C-terminal His2), assembled into hexagonal 3D crystals with Zn2+; test: crystals dissolved with EDTA; peptide by UPLC, protein by fluorescence spectroscopy

coiled-coils for each protein guest within the hourglass section (coiled-coils per protein) [1]: 30 to 35 | coiled-coil units for each protein guest (coiled-coil units per protein) [2]: 60 to 70 | ratio of peptide to protein cargo in the crystals (peptide : protein) [2]: 200
Substance: Enhanced green fluorescent protein with an N-terminal His6-tag (EGFP)
